pIC50: −log10 of the molar value. Square brackets hold non-standard residues; d marks the D form. Ends that are not written are not given here. 2Nal = N[C@@H](Cc1ccc2ccccc2c1)C(=O)O; Cit = NC(=O)NCCC[C@H](N)C(=O)O
What was measured:
[1] = target: CXCR4 (Homo sapiens, UniProt P61073); conditions: read-out: IC50, binds to CXCR4 with high affinity; cited from earlier work
[2] = Solubility of BL-8040 powder; format: physicochemical
[3] = system: human keratinocytes and normal human hematopoietic cells; conditions: cited from earlier work
[4] = system: metastatic pancreatic adenocarcinoma (PDAC); conditions: cited from earlier work
[5] = system: metastatic pancreatic cancer; conditions: metastatic/advanced pancreatic cancer; cited from earlier work

CXCR4, sequence (P61073 whole entry, species assumed): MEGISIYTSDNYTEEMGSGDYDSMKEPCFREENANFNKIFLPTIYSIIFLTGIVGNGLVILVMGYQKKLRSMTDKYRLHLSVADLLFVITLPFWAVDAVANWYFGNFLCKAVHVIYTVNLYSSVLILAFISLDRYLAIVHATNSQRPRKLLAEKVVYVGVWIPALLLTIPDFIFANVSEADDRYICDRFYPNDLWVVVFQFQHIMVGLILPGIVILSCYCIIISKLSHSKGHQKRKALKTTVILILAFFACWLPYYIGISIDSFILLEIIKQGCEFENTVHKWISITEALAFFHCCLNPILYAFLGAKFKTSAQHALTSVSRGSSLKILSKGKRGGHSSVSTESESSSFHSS

Row | Substance | pIC50 [1] | solubility in 0.45% Sodium Chloride (half normal saline) ([2]; 0.45% Sodium Chloride) | solubility in water ([2]; water) | effect on viability of human keratinocytes and normal human hematopoietic cells [3] | level of effector CD8 cells that express Granzyme B in the tumor microenvironment [4] | level of myeloid derived suppressor cells (MDSCs) in the tumor microenvironment [4] | increase in median survival [5] [months]
1 | BL-8040 (RR[2Nal]CY[Cit]K[dK]PYR[Cit]CR-NH2; not fully specified (residue 1, N-terminus, bridges); cysteine pairing not given here) | 8.35 to 9.27 | freely soluble | freely soluble | did not affect the viability | increasing | decreasing | 
2 | FOLFIRINOX |  |  |  |  |  |  | 4.3

Source: US12291570B2, “Treatment of metastatic pancreatic adenocarcinoma” (BioLineRx Ltd., priority 2018, dated 2025)
